Measurements taken from PMC6073767.

Columns and labels:
[1] = confocal linescan, surface colocalisation, HEK293T co-expression; settings: glycan lost; control: Panx2-FLAG
[2] = cell-surface biotinylation, HEK293T; settings: glycan lost; control: wild-type Panx2
[3] = cell-surface biotinylation, AD293; settings: glycan lost; control: wild-type Panx2
[4] = cell-surface biotinylation, NRK; settings: glycan lost; control: wild-type Panx2

B1: Panx2: N86Q-FLAG (protein)
parent chain: MHHLLEQSADMATALLAGEKLRELILPGSQDDKAGALAALLLQLKLELPFDRVVTIGTVLVPILLVTLVFTKNFAEEPIYCYTPHNFTRDQALYARGYCWTELRDALPGVDASLWPSLFEHKFLPYALLAFAAIMYVPALGWEFLASTRLTSELNFLLQEIDNCYHRAAEGRAPKIEKQIQSKGPGITEREKREIIENAEKEKSPEQNLFEKYLERRGRSNFLAKLYLARHVLILLLSVVPISYLCTYYATQKQNEFTCALGASPDGPVGSAGPTVRVSCKLPSVQLQRIIAGVDIVLLCFMNLIILVNLIHLFIFRKSNFIFDKLNKVGIKTRRQWRRSQFCDINILAMFCNENRDHIKSLNRLDFITNESDLMYDNVVRQLLAALAQSNHDTTPTVRDSGIQTVDPSINPAEPDGSAEPPVVKRPRKKMKWIPTSNPLPQPFKEQLAIMRVENSKTEKPKPVRRKTATDTLIAPLLDAGARAAHHYKGSGGDSGPSSAPPAASEKKHTRHFSLDVHPYILGTKKAKTEAVPPALPASRSQEGGFLSQTEECGLGLAAAPTKDAPLPEKEIPYPTEPALPGLPSGGSFHVCSPPAAPAAASLSPGSLGKADPLTILSRNATHPLLHISTLYEAREEEEGGPCAPSDMGDLLSIPPPQQILIATFEEPRTVVSTVEF
Question: For B1, which localisation_or_trafficking [1] is on record?
Answer: Its localisation_or_trafficking is “decreases”.

B2: Panx2: N86Q (protein)
parent chain: B1 parent chain
Question: What does the source list for B2?
Answer: localisation_or_trafficking, other: surface fraction of total protein [2]: decreases, ~1 vs approximately 4; localisation_or_trafficking [3]: decreases; localisation_or_trafficking [4]: decreases
